Data on 17 sequences can be found in patent US6001988.

Data set [1] addresses T1, L-selectin (LS-Rg) (Homo sapiens) (UniProt P14151).
T1 sequence: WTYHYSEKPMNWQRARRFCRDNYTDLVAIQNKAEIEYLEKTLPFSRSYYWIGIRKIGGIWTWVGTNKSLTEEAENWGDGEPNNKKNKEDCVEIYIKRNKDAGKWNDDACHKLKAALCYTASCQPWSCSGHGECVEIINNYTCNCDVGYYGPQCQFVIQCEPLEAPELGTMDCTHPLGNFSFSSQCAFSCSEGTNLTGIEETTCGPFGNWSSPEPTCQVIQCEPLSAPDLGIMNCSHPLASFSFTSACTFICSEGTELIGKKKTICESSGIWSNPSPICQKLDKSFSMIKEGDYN
Briefly: filter.

For data set [2], the target named is T2, E-selectin (ES-Rg) (Homo sapiens) (UniProt P16581).
T2 sequence: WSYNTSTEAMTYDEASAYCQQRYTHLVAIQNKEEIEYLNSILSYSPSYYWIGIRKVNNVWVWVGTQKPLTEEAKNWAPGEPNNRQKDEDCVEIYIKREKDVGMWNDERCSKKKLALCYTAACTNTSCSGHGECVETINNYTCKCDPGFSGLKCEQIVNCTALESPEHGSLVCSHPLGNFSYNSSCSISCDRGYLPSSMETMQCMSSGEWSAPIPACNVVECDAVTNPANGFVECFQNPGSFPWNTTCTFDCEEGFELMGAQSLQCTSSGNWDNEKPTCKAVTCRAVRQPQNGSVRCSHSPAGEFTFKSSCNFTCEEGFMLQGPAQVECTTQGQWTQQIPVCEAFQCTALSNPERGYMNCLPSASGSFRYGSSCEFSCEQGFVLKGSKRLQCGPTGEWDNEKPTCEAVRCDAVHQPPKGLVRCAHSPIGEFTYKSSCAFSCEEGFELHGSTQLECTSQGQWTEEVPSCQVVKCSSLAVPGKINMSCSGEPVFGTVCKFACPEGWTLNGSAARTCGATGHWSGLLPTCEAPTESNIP
The experiment in a line: filter.

In the next data set the target is CD22beta (CD22beta-Rg) (UniProt P20273). The experiment in a line: filter.
Chain of CD22beta (CD22beta-Rg) (P20273 20-687): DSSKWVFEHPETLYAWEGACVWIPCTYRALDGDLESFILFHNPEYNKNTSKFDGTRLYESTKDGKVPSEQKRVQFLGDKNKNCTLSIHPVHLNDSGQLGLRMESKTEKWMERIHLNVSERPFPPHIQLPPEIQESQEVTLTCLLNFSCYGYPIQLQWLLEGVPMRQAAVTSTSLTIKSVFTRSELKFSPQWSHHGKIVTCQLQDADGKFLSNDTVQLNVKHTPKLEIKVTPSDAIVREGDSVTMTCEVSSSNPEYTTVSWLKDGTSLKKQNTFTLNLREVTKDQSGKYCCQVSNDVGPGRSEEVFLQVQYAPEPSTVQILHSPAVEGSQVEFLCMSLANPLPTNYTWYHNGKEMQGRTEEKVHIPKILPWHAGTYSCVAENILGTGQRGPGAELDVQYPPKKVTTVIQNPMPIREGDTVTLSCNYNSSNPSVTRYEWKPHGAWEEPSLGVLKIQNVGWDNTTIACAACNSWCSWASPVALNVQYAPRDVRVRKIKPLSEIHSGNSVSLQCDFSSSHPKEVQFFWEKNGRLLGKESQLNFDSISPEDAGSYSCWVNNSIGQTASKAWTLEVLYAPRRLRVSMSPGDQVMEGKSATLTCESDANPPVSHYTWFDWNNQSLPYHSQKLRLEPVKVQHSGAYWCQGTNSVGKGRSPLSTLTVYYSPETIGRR
For data set [3], the system named is Datura stramonium lectin (Datura stramonium). The experiment in a line: filter. Conditions: 2'-NH2 all C and U.
The target in data set [4] is T3, wheat germ agglutinin (WGA) (Triticum vulgare) (UniProt P10968).
T3 sequence: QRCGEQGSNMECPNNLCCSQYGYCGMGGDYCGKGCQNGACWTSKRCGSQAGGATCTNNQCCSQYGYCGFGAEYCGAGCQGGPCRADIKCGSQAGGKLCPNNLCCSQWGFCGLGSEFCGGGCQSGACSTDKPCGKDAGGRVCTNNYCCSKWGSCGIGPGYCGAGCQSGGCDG
Briefly: filter.

The target in data set [5] is T4, P-selectin (PS-Rg) (Homo sapiens) (UniProt P16109).
T4 sequence: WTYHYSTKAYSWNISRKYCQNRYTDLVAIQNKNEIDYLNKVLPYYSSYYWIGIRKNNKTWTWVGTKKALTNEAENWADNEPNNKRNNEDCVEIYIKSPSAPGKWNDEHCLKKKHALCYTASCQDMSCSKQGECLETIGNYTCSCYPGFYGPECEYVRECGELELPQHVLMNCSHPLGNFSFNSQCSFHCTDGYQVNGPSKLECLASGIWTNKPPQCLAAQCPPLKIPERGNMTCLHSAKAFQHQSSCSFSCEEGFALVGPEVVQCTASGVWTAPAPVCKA
Briefly: filter.

The target of data set [6] is T5, L-selectin on PBMC (Homo sapiens) (UniProt P14151).
T5 sequence: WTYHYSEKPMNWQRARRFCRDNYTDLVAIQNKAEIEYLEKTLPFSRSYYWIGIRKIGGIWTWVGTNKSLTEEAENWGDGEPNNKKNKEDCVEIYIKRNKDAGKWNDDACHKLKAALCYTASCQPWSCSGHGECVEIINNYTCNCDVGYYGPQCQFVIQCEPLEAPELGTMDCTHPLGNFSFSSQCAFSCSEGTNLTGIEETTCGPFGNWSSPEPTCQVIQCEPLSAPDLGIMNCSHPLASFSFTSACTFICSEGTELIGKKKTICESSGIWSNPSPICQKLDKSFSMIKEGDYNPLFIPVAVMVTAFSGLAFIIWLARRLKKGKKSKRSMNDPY
The conditions noted are these: 2'-NH2 all C and U; PBMC binding on ice; competed by DREG-56 anti-L-selectin antibody.

The target of data set [7] is T1, L-selectin (LS-Rg) (Homo sapiens). The experiment in a line: inhibition. Conditions: 2'-NH2 all C and U; inhibits LS-Rg binding to immobilized sialyl-Lewis X, room temp, Ca/Mg.
Setting [8] is: 2'-NH2 on all C and U, <5% binding at highest protein, 4 C, HSMC.
The mark [9] stands for this setting: 2'-NH2 all C and U, HBSS, room temp.

For “CTACCTACGATCTGACTAGCCGAGGATCTGATACTTATTGAACATAMCCGCACNCAGGCTTGCTTACTCTCATGTAGTTCC [102]”, in data set [1] (37 C, room temp not determined), the Kd was 7.9 nM.

For “GGGAGGACGAUGCGGNNNNNNNNNNNNNNNNNNNNNNNNNNNNNNNNNNNNNNNNCAGACGACUCGCCCGA [random 40N7 RNA pool]”, the Kd in data set [1] (2'-NH2 all C and U, estimate for random RNA) was 10000 nM.

Take “GGGAGGACGAUGCGGUCCAGAGCGUGAAGAUCAACGUCCCGGNGUCGAAGACAGACGACUCGCCCGA [F14.70]”: the Kd is 5.9 µM in data set [2] (2'-NH2 all C and U, 4 C, HSMC); 2 nM in data set [1] (2'-NH2 all C and U, 4 C, HSMC, biphasic, fraction 0.75, low affinity Kd 254 nM, 7.8 nM at room temp); greater than 20 µM with CD22beta (CD22beta-Rg) (setting [8]). Regarding “GGGAAAAGCGAAUCAUACACAAGACGGCUGUGUGGUGUUGGAGCGUCAUAGUAGGAGUCGUCACGAACCAAGGCGCUCCGCCAGAGACCAACCGAGAA [11.24]”, in data set [3] (<5% bound at 1 uM protein), the dissociation constant (Kd) was greater than 20 µM. In data set [3] (HBSS, room temp), “GGGAAAAGCGAAUCAUACACAAGAUUGGUCGUACUGGACAGAGCCGUGGUAGAGGGAUUGGGACAAAGUGUCAGCUCCGCCAGAGACCAACCGAGAA [11.20]” yielded a dissociation constant Kd of 11.2 µM. “GGGAAAAGCGAAUCAUACACAAGAAAGGGAUGGGAUUGGGACGAGCGGCCAAGACUCGGCGGGAACGAAGGGUCCGCUCCGCCAGAGACCAACCGAGAA [6.8]” displayed a Kd in data set [3] (<5% bound at 1 uM protein) greater than 20 µM.

Sequence “GGGAAAAGCGAAUCAUACACAAGAGAGGUGRAUGGGAGAGUGGAGCCCGGGUGACUCGAGGAUUCCCGUGCUCCGCCAGAGACCAACCGAGAA [11.3]” gave a dissociation constant Kd in data set [4] (setting [9]) of 0.41 µM.

“GGGAGGACGAUGCGGAAGUGAAGCUAAAGCGGAGGGCCAUUCAGUUUCNCACCACAGACGACUCGCCCGA [F14.2]”: the dissociation constant (Kd) is 1.9 µM in data set [2] (2'-NH2 all C and U, 4 C, HSMC); 1.8 nM in data set [1] (2'-NH2 all C and U, 4 C, HSMC, 7.2 nM at room temp); greater than 20 µM with CD22beta (CD22beta-Rg) (setting [8]); 0.45 µM in data set [5] (2'-NH2 all C and U, 4 C, HSMC). Consider “GGGAAAAGCGAAUCAUACACAAGACAGCGGCGGAGUCAGUGAAAGCGUGGGGGGYGCGGGAGGUCUACCCUGACGCUCCGCCAGAGACCAACCGAGAA [6.14]”, for which, in data set [4] (2'-NH2 all C and U, <5% bound at 1 uM WGA), the Kd is greater than 20 µM. For “CTACCTACGATCTGACTAGCCGAGGTAGTCGTTATAGGGTRCRCACGACACAAARCRGTRGCTTACTCTCATGTAGTTCC [127]”, the dissociation constant Kd is 1.3 µM in data set [2] (room temp, Ca/Mg buffer); 1 nM in data set [1] (room temp, 890 pM at 37 C); greater than 100 µM with CD22beta (CD22beta-Rg) (<1% binding at 700 nM, room temp); greater than 100 µM in data set [4] (<3% binding at 1.4 µM, room temp); 0.78 µM in data set [5] (room temp, Ca/Mg buffer). In the case of “GGGAGGACGAUGCGGAAGUGAAGCUAAAGSGGAGGGCCACUCAGAAACGCACCACAGACGACUCGCCCGA [F14.13]”, in data set [1] (2'-NH2 all C and U, 4 C, HSMC, biphasic, fraction 0.74, low affinity Kd 270 nM), the equilibrium dissociation constant (Kd) came out at 1.3 nM. Turning to “CTACCTACGATCTGACTAGCNNNNNNNNNNNNNNNNNNNNNNNNNNNNNNNNNNNNNNNNGCTTACTCTCATGTAGTTCC [random 40BH ssDNA pool]”, the equilibrium dissociation constant (Kd) in data set [1] (estimate for random ssDNA) was 10000 nM. In data set [1] (2'-NH2 all C and U, 4 C, HSMC), “GGGAGGACGAUGCGGCCGUACAUGGUAARCCUCGAAGGAUUCCCGGGAUGAUCCCCAGACGACUCGCCCGA [F14.27]” yielded a Kd of 145 nM. Turning to “GGGAGGACGAUGCGGUAACAACAAUCAAGGCGGGUUYACCGCCCCAGUAUGAGUACAGACGACUCGCCCGA [F14.12]”, the dissociation constant (Kd) in data set [6] is 0.0013 µM; in data set [2] (2'-NH2 all C and U, 4 C, HSMC), 0.047 µM; in data set [1] (2'-NH2 all C and U, 4 C, HSMC, Table IX prints 5.8 pM (fraction 0.68, low affinity Kd 16.2 nM), 1.7 nM at room temp) it was 0.06 nM; with CD22beta (CD22beta-Rg) (2'-NH2 all C and U, <5% bound at up to 660 nM, 4 C) it was greater than 20 µM; in data set [5] (2'-NH2 all C and U, 4 C, HSMC), 0.91 µM. For the same sequence, the half-inhibitory concentration (IC50) in data set [7] came out at 0.01 µM. “GGGAAAAGCGAAUCAUACACAAGANNNNNNNNNNNNNNNNNNNNNNNNNNNNNNNNNNNNNNNNNNNNNNNNNNGCUCCGCCAGAGACCAACCGAGAA [random 50N9 RNA pool]” had a Kd in data set [4] (2'-NH2 all C and U, no binding at 36 uM WGA monomer) greater than 4000 µM. Sequence “GGGAAAAGCGAAUCAUACACAAGAGUAGGAGGUUCCAUCACCAGGACUCGGCGGGAACGGAAGGUGAUGSGCUCCGCCAGAGACCAACCGAGAA [11.35]” yielded a Kd in data set [4] (setting [9]) of 0.09 µM. Still for that read-out and setting: in the case of “GGGAAAAGCGAAUCAUACACAAGACUGGCAAGRAGUGCGUGAGGGUACGUUAGGGGUGUUUGGGCCGAUCGCAUGCUCCGCCAGAGACCAACCGAGAA [11.7]” it was 0.016 µM.

The term Kd denotes the concentration at which binding is half-saturated. As a reminder, the IC50 is the concentration that inhibits the measured activity by half.
